Test results taken from article PMC6274998, “Mycobacterium tuberculosis ClpC1 N-Terminal Domain Is Dispensable for Adaptor Protein-Dependent Allosteric Regulation” (International Journal of Molecular Sciences, 2018).

How the values were obtained:
ClpS (Escherichia coli) = ClpS (Escherichia coli) (UniProt P0A8Q6); conditions: cited from earlier work
[1] = target: ClpS (additional molecules) (Escherichia coli) (UniProt P0A8Q6); conditions: cited from earlier work
[2] = target: full-length Mycobacterium tuberculosis ClpC1 (Mycobacterium tuberculosis H37Rv) (UniProt P9WPC9)
full-length Mycobacterium tuberculosis ClpC1 (Mycobacterium tuberculosis H37Rv), sequence (P9WPC9 whole entry): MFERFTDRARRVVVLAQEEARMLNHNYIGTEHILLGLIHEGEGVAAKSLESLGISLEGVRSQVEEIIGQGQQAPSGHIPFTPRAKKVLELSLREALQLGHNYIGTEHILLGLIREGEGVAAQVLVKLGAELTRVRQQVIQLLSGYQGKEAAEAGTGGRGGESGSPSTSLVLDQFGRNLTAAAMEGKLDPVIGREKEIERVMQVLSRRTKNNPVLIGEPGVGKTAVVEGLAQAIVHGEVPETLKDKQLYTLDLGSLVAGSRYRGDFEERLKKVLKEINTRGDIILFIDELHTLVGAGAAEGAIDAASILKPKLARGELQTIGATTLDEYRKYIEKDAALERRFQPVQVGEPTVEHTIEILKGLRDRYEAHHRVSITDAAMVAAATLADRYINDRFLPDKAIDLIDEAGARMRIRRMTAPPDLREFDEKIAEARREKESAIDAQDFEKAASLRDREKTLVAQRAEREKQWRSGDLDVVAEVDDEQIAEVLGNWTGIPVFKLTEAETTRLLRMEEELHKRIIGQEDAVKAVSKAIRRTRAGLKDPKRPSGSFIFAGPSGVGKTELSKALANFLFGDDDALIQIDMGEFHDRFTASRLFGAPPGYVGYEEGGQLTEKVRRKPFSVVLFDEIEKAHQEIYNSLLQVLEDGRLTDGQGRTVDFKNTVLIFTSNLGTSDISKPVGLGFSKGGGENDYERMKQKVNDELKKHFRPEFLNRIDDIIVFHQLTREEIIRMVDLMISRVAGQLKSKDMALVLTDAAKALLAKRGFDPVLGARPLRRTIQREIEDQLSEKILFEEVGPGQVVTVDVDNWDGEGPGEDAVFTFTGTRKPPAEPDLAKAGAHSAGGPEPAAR

[3] = target: T1, full-length Mycobacterium tuberculosis ClpC1 (Mycobacterium tuberculosis H37Rv, UniProt P9WPC9 1-848); experiment: pull-down; conditions: both partners purified
T1 construct: ClpC1 AAA+ ATPase, M. tuberculosis H37Rv, Rv3596c, full length; also called wild-type M. tuberculosis ClpC1; Full-Length ClpC1; not shown: His6-SUMO, N-terminal, cleaved
T1 sequence (P9WPC9 whole entry): as above

ClpS (Escherichia coli), sequence (P0A8Q6 whole entry): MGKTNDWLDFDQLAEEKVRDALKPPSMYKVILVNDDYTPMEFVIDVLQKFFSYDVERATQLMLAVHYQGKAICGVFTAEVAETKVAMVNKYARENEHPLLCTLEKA
ClpS (additional molecules) (Escherichia coli), sequence (P0A8Q6 whole entry): as above

For ClpA (from UniProt P0ABH9), the Kd (ClpS (Escherichia coli)) is given as 40 nM and the Kd [1] is given as over 700 nM.

B1: Mycobacterium tuberculosis ClpS (His6-SUMO tag removed) (natural protein)
chain: MAVVSAPAKPGTTWQRESAPVDVTDRAWVTIVWDDPVNLMSYVTYVFQKLFGYSEPHATKLMLQVHNEGKAVVSAGSRESMEVDVSKLHAAGLWATMQQDR
In the case of B1, the average binding stoichiometry inferred from k (UF,app) against [ClpS]T/[ClpC1]T, stopped-flow unfolding of SsrA-KaedeRed (ClpC1 subunits per ClpS) [2] is reported as 2 and the inflection point of k (UF,app) against the ratio of total ClpS to total ClpC1 monomer concentration, stopped-flow unfolding of SsrA-KaedeRed ([ClpS]T/[ClpC1]T) [2] is reported as 0.65.

B2: His6-SUMO-ClpS (Mycobacterium tuberculosis ClpS adaptor protein, His6-SUMO fusion) (natural protein)
chain: B1 chain
notes: also called His6-ClpS; His6-tagged ClpS; not shown: His6, N-terminal, kept; SUMO, N-terminal, kept
B2: binds [3].
